Source: IntAct's records for PubMed 24794838

B1: PIH1 domain-containing protein 1 (Mus musculus), Q9CQJ2 (parent)
chain: MADSTFLAPELSDTESMGEETVRFQELLLKASKELQQAQTARPDSTQIQPKPGFCVKTNSSEGKVFINICHSPSIPPPADVTEDELLQMLEEDQAGFRIPMSLGEPHAELDAKGQGCTAYDVAVNSNFYLRMQNSDFLRELVVTIAREGLEDKYGLQLNPEWRMLKYRSFLGSISQQNIRSQQRPRIQELGTLDASGSLGTCHGPERPHLNLWLEAPDLLLAEVDLPKLDGAQGLALEIGENRLVIGGPQQLYHLDATVPLRINSEASRAAFHRRRKQLMVSMPLLTASS

Variants of: B1
Conditions: with telo2_mouse Telo2, Q9DC40
telo2_mouse Telo2, Q9DC40, sequence (Q9DC40 whole entry): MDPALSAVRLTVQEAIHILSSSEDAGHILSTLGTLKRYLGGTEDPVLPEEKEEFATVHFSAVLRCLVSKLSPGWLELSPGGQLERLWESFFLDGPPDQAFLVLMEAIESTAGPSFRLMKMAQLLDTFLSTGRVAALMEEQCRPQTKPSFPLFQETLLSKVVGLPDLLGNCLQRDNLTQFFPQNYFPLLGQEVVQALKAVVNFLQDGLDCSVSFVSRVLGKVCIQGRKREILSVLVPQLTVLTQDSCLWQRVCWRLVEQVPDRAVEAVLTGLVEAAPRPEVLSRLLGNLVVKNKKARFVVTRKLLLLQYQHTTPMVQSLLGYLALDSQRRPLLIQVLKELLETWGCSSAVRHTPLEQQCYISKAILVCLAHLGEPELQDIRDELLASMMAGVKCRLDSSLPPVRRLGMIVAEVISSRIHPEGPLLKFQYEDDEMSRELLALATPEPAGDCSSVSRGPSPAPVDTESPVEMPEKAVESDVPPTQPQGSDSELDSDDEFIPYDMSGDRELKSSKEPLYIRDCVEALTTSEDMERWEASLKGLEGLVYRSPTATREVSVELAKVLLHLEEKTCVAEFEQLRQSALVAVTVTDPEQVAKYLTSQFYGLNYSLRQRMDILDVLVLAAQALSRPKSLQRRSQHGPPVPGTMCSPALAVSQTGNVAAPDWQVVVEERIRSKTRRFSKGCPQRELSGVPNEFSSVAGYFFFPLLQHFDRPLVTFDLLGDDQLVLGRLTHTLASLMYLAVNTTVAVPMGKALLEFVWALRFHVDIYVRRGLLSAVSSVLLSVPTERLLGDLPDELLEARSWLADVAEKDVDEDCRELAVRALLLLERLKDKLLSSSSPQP

effect of a mutation on the interaction	Variant
disrupting interaction strength	MADSTFLAPELSDTESMGEETVRFQELLLKASKELQQAQTARPDSTQIQPKPGFCVETNSSEGKVFINICHSPSIPPPADVTEDELLQMLEEDQAGFRIPMSLGEPHAELDAKGQGCTAYDVAVNSNFYLRMQNSDFLRELVVTIAREGLEDKYGLQLNPEWRMLKYRSFLGSISQQNIRSQQRPRIQELGTLDASGSLGTCHGPERPHLNLWLEAPDLLLAEVDLPKLDGAQGLALEIGENRLVIGGPQQLYHLDATVPLRINSEASRAAFHRRRKQLMVSMPLLTASS [K57E]
disrupting interaction strength	MADSTFLAPELSDTESMGEETVRFQELLLKASKELQQAQTARPDSTQIQPKPGFCVKTNSSEGEVFINICHSPSIPPPADVTEDELLQMLEEDQAGFRIPMSLGEPHAELDAKGQGCTAYDVAVNSNFYLRMQNSDFLRELVVTIAREGLEDKYGLQLNPEWRMLKYRSFLGSISQQNIRSQQRPRIQELGTLDASGSLGTCHGPERPHLNLWLEAPDLLLAEVDLPKLDGAQGLALEIGENRLVIGGPQQLYHLDATVPLRINSEASRAAFHRRRKQLMVSMPLLTASS [K64E]
